Source: paper PMC9949482 (2021)

B1: RXRα LBD (protein)
chain: NEDMPVERILEAELAVEPKTETYVEANMGLNPSSPNDPVTNICQAADKQLFTLVEWAKRIPHFSELPLDDQVILLRAGWNELLIASFSHRSIAVKDGILLATGLHVHRNSAHSAGVGAIFDRVLTELVSKMRDMQMDKTELGCLRAIVLFNPDSKGLSNPAEVEALREKVYASLEAYCKHKYPEQPGRFAKLLLRLPALRSIGLKCLEHLFFFKLIGDTPIDTFLMEMLEAP
modifications: UAB111
B2: RXRα LBD (protein)
chain: B1 chain
modifications: UAB110
B3: RXRα LBD (protein)
chain: B1 chain
modifications: UAB30

Each binder was assayed against T1, GRIP-1 (Homo sapiens, UniProt Q15596) (assay: thermal shift).
T1 sequence (Q15596 2-1464): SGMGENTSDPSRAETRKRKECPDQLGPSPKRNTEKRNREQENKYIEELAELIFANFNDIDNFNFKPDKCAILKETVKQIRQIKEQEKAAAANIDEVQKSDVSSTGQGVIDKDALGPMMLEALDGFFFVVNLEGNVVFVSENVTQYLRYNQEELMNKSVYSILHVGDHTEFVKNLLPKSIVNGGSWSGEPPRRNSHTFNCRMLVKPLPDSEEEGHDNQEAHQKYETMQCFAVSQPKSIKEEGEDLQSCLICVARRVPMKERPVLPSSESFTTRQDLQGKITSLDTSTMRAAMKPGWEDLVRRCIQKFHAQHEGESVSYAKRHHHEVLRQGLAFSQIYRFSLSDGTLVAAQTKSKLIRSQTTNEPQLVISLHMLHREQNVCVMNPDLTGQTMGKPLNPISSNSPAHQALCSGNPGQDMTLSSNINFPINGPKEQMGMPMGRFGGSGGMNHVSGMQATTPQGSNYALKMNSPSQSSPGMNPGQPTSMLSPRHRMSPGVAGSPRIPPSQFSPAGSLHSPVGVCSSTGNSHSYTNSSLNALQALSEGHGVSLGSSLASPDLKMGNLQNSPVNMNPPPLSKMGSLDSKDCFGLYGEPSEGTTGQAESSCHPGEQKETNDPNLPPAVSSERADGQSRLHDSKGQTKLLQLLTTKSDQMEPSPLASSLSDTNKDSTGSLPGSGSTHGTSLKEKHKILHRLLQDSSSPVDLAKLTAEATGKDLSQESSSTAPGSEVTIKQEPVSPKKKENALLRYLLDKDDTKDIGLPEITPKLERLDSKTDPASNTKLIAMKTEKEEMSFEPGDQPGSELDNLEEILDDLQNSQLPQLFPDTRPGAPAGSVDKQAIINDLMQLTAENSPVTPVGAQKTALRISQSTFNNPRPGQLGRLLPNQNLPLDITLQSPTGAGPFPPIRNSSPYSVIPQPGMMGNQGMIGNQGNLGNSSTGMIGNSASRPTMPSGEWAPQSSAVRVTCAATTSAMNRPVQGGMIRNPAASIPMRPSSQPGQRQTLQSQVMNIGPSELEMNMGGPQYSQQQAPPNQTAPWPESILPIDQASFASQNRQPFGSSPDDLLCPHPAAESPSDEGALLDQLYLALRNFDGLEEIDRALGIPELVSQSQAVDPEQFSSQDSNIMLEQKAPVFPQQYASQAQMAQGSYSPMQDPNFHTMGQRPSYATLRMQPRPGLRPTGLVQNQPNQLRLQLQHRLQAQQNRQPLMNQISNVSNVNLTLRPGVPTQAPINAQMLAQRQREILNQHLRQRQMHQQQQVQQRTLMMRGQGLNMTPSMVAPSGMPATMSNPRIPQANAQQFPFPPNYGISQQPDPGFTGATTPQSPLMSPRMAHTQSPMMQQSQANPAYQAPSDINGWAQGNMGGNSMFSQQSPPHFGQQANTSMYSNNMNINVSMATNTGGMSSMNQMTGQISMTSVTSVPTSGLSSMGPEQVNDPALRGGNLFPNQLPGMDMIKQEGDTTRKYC

Row | Kd | Binder
1 | 24 µM | B1
2 | 26 µM | B2
3 | 22 µM | B3

The binders below were run against T1, GRIP-1 (assay: thermal shift, van't Hoff to 25 °C).

Row | Kd | Binder
4 | 1.8 µM | B1
5 | 1.5 µM | B2
6 | 0.74 µM | B3
